Data taken from patent US20070071750A1 (UNIVERSIDAD NACIONAL AUT NOMA DE M XICO UNAM, published 2007).

Experiments:
[1] = molecular target: T1, BSA (Bos taurus, UniProt P02769); test: phage ELISA, BSA coated, anti-M13-HRP, Abs. 492 nm
T1 construct: also called bovine serum albumin

[2] = molecular target: T2, toxin Cll1 from Centruroides limpidus limpidus (Centruroides limpidus limpidus, UniProt P45667 1-66); test: phage ELISA, Cll1 coated at 3 µg/ml, anti-M13-HRP, Abs. 492 nm
T2 sequence: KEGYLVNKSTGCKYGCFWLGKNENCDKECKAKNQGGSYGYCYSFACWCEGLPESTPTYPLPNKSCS

[3] = molecular target: toxin Cll2 from Centruroides limpidus limpidus (Centruroides limpidus limpidus, UniProt P59898 1-66); test: phage ELISA, Cll2 coated at 3 µg/ml, anti-M13-HRP, Abs. 492 nm
[4] = molecular target: T3, toxin Cn2 from Centruroides noxius Hoffmann scorpion venom (Centruroides noxius Hoffmann, UniProt P01495 17-82); test: SPR (Biacore), Cn2 immobilised, soluble scFv injected
T3 construct: mature; also called Cn2 toxin; formerly 11-9.2.2

B1: scFv 3F (scFv)
scFv: EVQLVESGGGLVQPGGSLRLSCAGSGFTFDNYAMHWIRQVPGEGLEWVSGISRSSGDIGYADSVKGRFTISRDNAKKSLSLQMNSLRAEDTAVYYCARGGVGSFDTWGQGTMVTVSSGGGGSGGGGSGGGGSEIVLTQSPATLSVSPGERATLSCRASQSVRSYLAWYQQKPGQAPRLLISDASNRATGIPARFTGSGSGTDFTLTISSLEPEDFAIYYCQQYRYSPRTFGQGTKVEIKR
notes: also called clone 3F; phage-antibody 3F
binding result [1]: no binding (tested: 1x10^11 phages/ml)
binding result [2]: no binding (tested: 1x10^11 phages/ml)
binding result [3]: no binding (tested: 1x10^11 phages/ml)

B2: scFv C1 (scFv)
scFv: QVNLRESGGGLVQPGGSLRLSCAASGFSFGSYGMHWVRQAPGKGLEWVAVISYDGSNKYYADSVKGRFTISRDNSKNTLYLQMNSLRAEDTAVYYCAKDARDCLMCADWYFDLWGRGTLVTVSSGGGGSGGGGSGGGGSNFMLTQPHSASGTPGQRVTISCSGSSSNIGSNTVNWYRHLPGSAPELLIGSHNQRPSGVPDRFSASKSDTSASLAISGLQSEDEADYYCAAWDDSLIGYVFGTGTKLTVLG
notes: also called clone C1; phage-antibody C1
Kd [4]: 540 nM
koff [4]: 0.014 s⁻¹
kon [4]: 20000 M⁻¹ s⁻¹
binding result [1]: no binding (tested: 1x10^11 phages/ml)
binding result [2]: no binding (tested: 1x10^11 phages/ml)
binding result [3]: no binding (tested: 1x10^11 phages/ml)
